Results taken from patent publication US20040156847A1.

Molecular target: human CD30 expressed on human peripheral blood eosinophils (human) (UniProt P28908)
Test: cell-based or functional assay

Chain of UniProt P28908 (P28908 19-595): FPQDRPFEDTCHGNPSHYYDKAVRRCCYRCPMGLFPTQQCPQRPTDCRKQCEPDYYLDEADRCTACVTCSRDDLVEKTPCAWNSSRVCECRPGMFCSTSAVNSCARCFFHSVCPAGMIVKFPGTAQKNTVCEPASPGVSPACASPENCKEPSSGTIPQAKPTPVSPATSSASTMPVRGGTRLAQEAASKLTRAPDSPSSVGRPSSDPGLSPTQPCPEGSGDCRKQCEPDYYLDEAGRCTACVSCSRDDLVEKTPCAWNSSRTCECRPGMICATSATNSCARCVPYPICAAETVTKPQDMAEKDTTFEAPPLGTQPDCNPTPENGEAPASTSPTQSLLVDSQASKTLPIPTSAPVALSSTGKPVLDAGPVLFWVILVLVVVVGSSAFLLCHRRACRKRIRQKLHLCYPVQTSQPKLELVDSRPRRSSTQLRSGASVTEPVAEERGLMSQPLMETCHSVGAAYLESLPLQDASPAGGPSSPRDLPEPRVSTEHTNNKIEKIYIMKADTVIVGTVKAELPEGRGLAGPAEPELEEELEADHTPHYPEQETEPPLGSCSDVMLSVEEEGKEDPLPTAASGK

apoptosis of human peripheral blood eosinophils (FITC-Annexin V, flow cytometry), antibody immobilized at 0.01 µg/ml, 4 hours [%]	apoptosis of human peripheral blood eosinophils (FITC-Annexin V, flow cytometry), antibody immobilized at 0.1 µg/ml, 4 hours [%]	apoptosis of human peripheral blood eosinophils (FITC-Annexin V, flow cytometry), antibody immobilized at 1 µg/ml, 4 hours [%]	apoptosis of human peripheral blood eosinophils (FITC-Annexin V, flow cytometry), antibody immobilized at 10 µg/ml, 4 hours [%]	apoptosis of human peripheral blood eosinophils after 1 hour, antibody immobilized at 10 µg/ml [%]	apoptosis of human peripheral blood eosinophils after 1 hour, antibody immobilized at 10 µg/ml (comparison with anti-Fas CH-11) [%]	apoptosis of human peripheral blood eosinophils after 4 hours, antibody immobilized at 10 µg/ml [%]	apoptosis of human peripheral blood eosinophils after 4 hours, antibody immobilized at 10 µg/ml (comparison with anti-Fas CH-11) [%]	apoptosis of human peripheral blood eosinophils after 4 hours, antibody immobilized on polystyrene microbeads [%]	apoptosis of human peripheral blood eosinophils after 4 hours, ligand immobilized at 10 µg/ml [%]	apoptosis of human peripheral blood eosinophils after 4 hours, ligand immobilized at 100 µg/ml [%]	Substance
7.8	11.4	44.8	71.9	50	50	70	70	44	–	–	mouse anti-human CD30 monoclonal antibody Ber-H8 (PharMingen, San Diego, Calif.)
–	–	–	–	–	–	30	–	–	–	–	anti-mouse CD30 monoclonal antibody YMSM636.4.10 (Serotec Ltd, Oxford UK)
–	–	–	–	–	–	–	–	–	28	35	recombinant mouse CD30 ligand (R&D Systems Inc. Minneapolis, USA) (from UniProt P32972 68-239)
–	–	16.3	78.8	50	50	70	70	27.9	–	–	mouse anti-human CD30 monoclonal antibody HRS-4 (Immunotech, Marseilles, France)
